# Data reported in the Human Domainome abundance scans (Beltran et al. 2025).
# ± gives the uncertainty stated by the source.
# B1: RanBP-type and C3HC4-type zinc finger-containing protein 1, residues 369 to 411; numbered along this chain, Q9BYM8 (parent)
# chain: YHCKTPDCKGWCFFEDDVNEFTCPVCFHVNCLLCKAIHEQMNC
# Variants of: B1
# Assay: abundance fitness (aPCA) (normalised: wild type 0, dead -1); higher = more abundant; growth selection in yeast, the domain comes from the species named
# Settings: Homo sapiens
row,Variant,abundance fitness
1,G10F,-0.346 ± 0.17
2,G10M,-0.563 ± 0.11
3,G10H,-0.359 ± 0.11
4,G10L,-0.945 ± 0.077
5,G10N,-0.79 ± 0.16
6,G10T,-0.494 ± 0.071
7,G10K,-0.621 ± 0.14
8,G10E,-0.573 ± 0.057
9,G10D,-0.764 ± 0.067
10,G10V,-0.779 ± 0.081
11,G10P,-0.723 ± 0.14
12,G10A,-0.541 ± 0.055
13,G10S,-0.587 ± 0.067
14,G10R,-0.66 ± 0.051
15,G10Y,-0.343 ± 0.46
16,F21G,-0.291 ± 0.04
17,F21N,-0.321 ± 0.088
18,F21D,-0.211 ± 0.11
19,F21A,0.083 ± 0.043
20,F21E,-0.501 ± 0.052
21,F21C,-0.186 ± 0.064
22,F21I,-0.039 ± 0.24
23,F21K,-0.285 ± 0.093
24,F21H,-0.665 ± 0.4

row,Variant,abundance fitness
1,F21M,-0.188 ± 0.079
2,F21L,-0.45 ± 0.048
3,D17C,-0.215 ± 0.22
4,D17M,-0.256 ± 0.11
5,D17H,-0.021 ± 0.06
6,D17A,-0.038 ± 0.048
7,D17E,0.06 ± 0.046
8,D17I,-0.265 ± 0.11
9,D17G,0.116 ± 0.043
10,D17W,-0.133 ± 0.065
11,D17T,-0.077 ± 0.073
12,D17K,0.079 ± 0.062
13,D17V,0.034 ± 0.055
14,D17Q,0.142 ± 0.064
15,N19K,0.09 ± 0.065
16,N19P,-0.276 ± 0.071
17,N19E,0.042 ± 0.054
18,N19F,-0.395 ± 0.44
19,N19Q,0.052 ± 0.052
20,N19A,-0.023 ± 0.042
21,N19V,0.028 ± 0.052
22,N19D,-0.052 ± 0.066
23,N19G,-0.194 ± 0.038
24,N19L,-0.081 ± 0.044

row,Variant,abundance fitness
1,N19M,-0.078 ± 0.058
2,N19C,-0.118 ± 0.047
3,N19H,-0.264 ± 0.11
4,N19T,0.09 ± 0.047
5,N19R,0.014 ± 0.04
6,N19Y,-0.172 ± 0.23
7,N19W,-0.152 ± 0.042
8,N19S,0.024 ± 0.047
9,E20L,-0.163 ± 0.054
10,E20R,-0.255 ± 0.045
11,E20C,-0.303 ± 0.092
12,E20D,-0.347 ± 0.1
13,E20P,-0.83 ± 0.098
14,E20V,-0.391 ± 0.052
15,E20Q,-0.206 ± 0.054
16,E20I,-0.465 ± 0.2
17,E20T,-0.119 ± 0.057
18,E20S,-0.222 ± 0.063
19,E20G,-0.457 ± 0.048
20,E20H,-0.332 ± 0.079
21,E20K,-0.202 ± 0.063
22,E20F,-0.122 ± 0.07
23,E20M,-0.1 ± 0.076
24,E20A,-0.311 ± 0.046

row,Variant,abundance fitness
1,E20N,-0.276 ± 0.1
2,D16Q,0.045 ± 0.059
3,D16P,0.113 ± 0.083
4,D16G,-0.075 ± 0.047
5,D16K,0.146 ± 0.063
6,D16H,-0.045 ± 0.14
7,D16S,-0.14 ± 0.089
8,D16I,-0.458 ± 0.17
9,D16M,-0.244 ± 0.073
10,D16C,-0.182 ± 0.057
11,D16L,-0.166 ± 0.054
12,D16W,-0.349 ± 0.072
13,D16E,0.026 ± 0.053
14,D16N,-0.171 ± 0.1
15,D16T,-0.088 ± 0.058
16,D16V,-0.075 ± 0.049
17,D16A,0.006 ± 0.051
18,D16R,0.044 ± 0.046
19,C12S,0.252 ± 0.17
20,C12Y,0.04 ± 0.18
21,C12V,0.071 ± 0.11
22,C12L,-0.348 ± 0.33
23,C12G,-0.274 ± 0.3
24,C12R,-0.193 ± 0.1

row,Variant,abundance fitness
1,C12E,-0.854 ± 0.31
2,K9Q,-0.033 ± 0.052
3,K9P,0.047 ± 0.042
4,K9S,0.045 ± 0.041
5,K9T,0.056 ± 0.049
6,K9N,-0.19 ± 0.082
7,K9G,-0.042 ± 0.036
8,K9Y,-0.485 ± 0.19
9,K9H,-0.259 ± 0.079
10,K9R,0.036 ± 0.041
11,K9F,-0.378 ± 0.093
12,K9W,-0.105 ± 0.05
13,K9V,0.026 ± 0.04
14,W11V,0.116 ± 0.047
15,W11T,0.176 ± 0.049
16,W11P,-0.529 ± 0.049
17,W11D,-0.162 ± 0.064
18,W11G,-0.172 ± 0.037
19,W11K,0.023 ± 0.05
20,W11C,-0.088 ± 0.088
21,W11N,0.063 ± 0.071
22,W11M,0.191 ± 0.065
23,W11L,0.044 ± 0.054
24,W11E,0.184 ± 0.045

row,Variant,abundance fitness
1,W11R,0.036 ± 0.039
2,W11S,0.132 ± 0.047
3,W11A,-0.006 ± 0.04
4,W11Y,-0.038 ± 0.13
5,F13T,-0.084 ± 0.13
6,F13R,0.092 ± 0.081
7,F13V,-0.235 ± 0.094
8,F13A,0.124 ± 0.089
9,F13S,0.066 ± 0.45
10,F13C,-0.111 ± 0.15
11,F13G,-0.279 ± 0.082
12,F13E,0.428 ± 0.14
13,F13K,-0.084 ± 0.11
14,F14Q,-0.295 ± 0.12
15,F14G,0.162 ± 0.27
16,F14L,0.243 ± 0.08
17,F14W,0.075 ± 0.24
18,F14S,-0.165 ± 0.14
19,F14E,-0.082 ± 0.082
20,V18F,-0.272 ± 0.068
21,V18E,0.001 ± 0.043
22,V18I,0.099 ± 0.081
23,V18H,-0.277 ± 0.11
24,V18D,-0.222 ± 0.075

row,Variant,abundance fitness
1,V18T,-0.01 ± 0.073
2,V18S,-0.055 ± 0.052
3,V18Q,0.06 ± 0.065
4,V18K,-0.001 ± 0.058
5,V18N,-0.267 ± 0.083
6,V18G,-0.276 ± 0.041
7,V18P,0.048 ± 0.067
8,V18W,-0.458 ± 0.061
9,V18M,-0.14 ± 0.08
10,V18R,0.069 ± 0.039
11,E15H,-0.321 ± 0.14
12,E15K,-0.169 ± 0.15
13,E15N,-0.295 ± 0.075
14,E15C,-0.32 ± 0.09
15,E15Q,-0.096 ± 0.068
16,E15G,-0.204 ± 0.039
17,E15I,-0.187 ± 0.24
18,E15T,-0.042 ± 0.06
19,E15P,-0.153 ± 0.06
20,E15S,-0.254 ± 0.08
21,E15L,-0.423 ± 0.087
22,E15D,-0.201 ± 0.16
23,E15V,-0.238 ± 0.044
